± gives the uncertainty stated by the source.
Test: self-splicing fitness, log relative to wild type (ln ratio); higher = more splicing; Tetrahymena group I intron in knt gene, E. coli kanamycin selection, DiMSum; sequences stand for … in CUCUCU…GGAGGGAAAAGUUAUCAGGCAUGCACCUGGUAGCUAGUCUUUAAACCAAUAGAUUGCAUCGGUUUAAAAGGCAAGACCGUCAAAUUGCGGGAAAGGGGUCAACAGCCGUUCAGUACCAAGUCUCAGGGGAAACUUUGAGAUGGCCUUGCAAAGGGUAUGGUAAUAAGCUGACGGACAUGGUCCUAACCACGCAGCCAAGUCCUAAGUCAACAGAUCUUCUGUUGAUAUGGAUGCAGUUCACAGACUAAAUGUCGGUCGGGGAAGAUGUAUUCUUCUCAUAAGAUAUAGUCGGACCUCUCCUUAAUGGGAGCUAGCGGAUGAAGUGAUGCAACACUGGAGCCGCUGGGAACUAAUUUGUAUGCGAAAGUAUAUUGAUUAGUUUUGGAGUACUCGUGGUCG
Outline: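 DiMSum derived fitness as the error-weighted combination of fold changes across replicates, kanamycin versus no kanamycin, normalised to wild type. E. coli BL21(DE3) held the library, which randomised all eight P1ex-region intron nucleotides within the knt kanamycin-resistance gene on pET-22b(+). Six replicate transformations grew overnight at 37°C or 30°C on LB agar with or without 25 μg/mL kanamycin, also containing 100 μg/mL carbenicillin, 50 μM IPTG and 0.2% rhamnose, and pooled colonies were amplicon-sequenced on an Illumina HiSeq 2500.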

Sequence	self-splicing fitness (ln) (30 °C)	self-splicing fitness (ln) (37 °C)
AGAUAGCAAUAUUACGCGCG	0.343 ± 0.18	-0.618 ± 0.2
AGUGAGCAAUAUUACGGCCU	-0.495 ± 0.13	0.416 ± 0.15
AAACAGCAAUAUUACGUAGU	-1.64 ± 0.054	-1.62 ± 0.077
AUGUAGCAAUAUUACGUACU	-0.0156 ± 0.06	-0.16 ± 0.073
AUGGAGCAAUAUUACGUAGC	–	-1.93 ± 0.3
UCCAAGCAAUAUUACGCAGG	-3.56 ± 0.43	-2.05 ± 0.26
CAGCAGCAAUAUUACGUGUA	-2.97 ± 0.078	-1.65 ± 0.072
GCAAAGCAAUAUUACGCCGA	-2.04 ± 0.31	-1.82 ± 0.21
UGAUAGCAAUAUUACGCGUC	-3.08 ± 0.31	–
UUCUAGCAAUAUUACGCAGG	-3.52 ± 0.4	–
UAGGAGCAAUAUUACGGACA	-3.74 ± 0.4	-0.442 ± 0.18
UCACAGCAAUAUUACGACGA	-0.431 ± 0.071	-0.228 ± 0.073
GUGUAGCAAUAUUACGCUCG	-1 ± 0.18	-0.53 ± 0.21
AAGUAGCAAUAUUACGUUCC	-1.67 ± 0.16	-0.678 ± 0.16
AUCGAGCAAUAUUACGCGAU	-2.06 ± 0.27	–
ACAUAGCAAUAUUACGAUCC	-1.77 ± 0.15	-0.941 ± 0.16
AAGUAGCAAUAUUACGACUU	-0.629 ± 0.11	-1.34 ± 0.13
AGCAAGCAAUAUUACGGUGA	-1.88 ± 0.11	-0.835 ± 0.093
UGAAAGCAAUAUUACGGGGC	-3.89 ± 0.23	-2.73 ± 0.19
AACCAGCAAUAUUACGAUGU	-0.353 ± 0.039	0.149 ± 0.054
GUAAAGCAAUAUUACGGGGC	-3.07 ± 0.23	-2.29 ± 0.15
UGGCAGCAAUAUUACGAGUC	-2.79 ± 0.17	-3.11 ± 0.23
AGACAGCAAUAUUACGGUCG	-1.02 ± 0.093	-0.102 ± 0.12
CCGUAGCAAUAUUACGGUCA	-1.64 ± 0.12	-2.27 ± 0.19
AACAAGCAAUAUUACGCGAC	-2.41 ± 0.21	-1.47 ± 0.21

Sequence	self-splicing fitness (ln) (30 °C)	self-splicing fitness (ln) (37 °C)
CAUAAGCAAUAUUACGCGGA	-3.61 ± 0.24	-1.68 ± 0.16
AGGUAGCAAUAUUACGUUGC	-3.874 ± 0.031	-3.06 ± 0.047
CCUCAGCAAUAUUACGACGC	-3.56 ± 0.4	-2.43 ± 0.45
UGCCAGCAAUAUUACGCAAU	-4.51 ± 0.2	-2.59 ± 0.13
UGUCAGCAAUAUUACGCUUU	-1.13 ± 0.091	0.276 ± 0.09
CUGCAGCAAUAUUACGAGGA	-3.68 ± 0.22	-2.39 ± 0.18
GACCAGCAAUAUUACGGCUA	0.142 ± 0.055	0.0036 ± 0.068
GCACAGCAAUAUUACGCAUG	-2.95 ± 0.19	-0.809 ± 0.12
UAGCAGCAAUAUUACGGCUC	-0.698 ± 0.094	-0.839 ± 0.12
UUCCAGCAAUAUUACGUGAA	0.179 ± 0.072	-0.102 ± 0.094
CUUGAGCAAUAUUACGUUUC	-3.44 ± 0.27	-2.68 ± 0.36
CGGUAGCAAUAUUACGGCGU	-2.03 ± 0.14	-0.594 ± 0.13
UUCUAGCAAUAUUACGGAAA	–	-1.4 ± 0.45
CAAUAGCAAUAUUACGAGCA	-2.05 ± 0.34	-0.415 ± 0.3
CCAGAGCAAUAUUACGAAUA	-2.84 ± 0.23	-3.27 ± 0.42
UGCGAGCAAUAUUACGCCAG	-4.1 ± 0.42	–
UCCCAGCAAUAUUACGCGUG	-3.49 ± 0.18	-2.34 ± 0.2
UCUGAGCAAUAUUACGUUCU	-3.98 ± 0.3	-2.89 ± 0.31
AAUCAGCAAUAUUACGAAGG	-1.16 ± 0.071	-0.793 ± 0.099
AGAUAGCAAUAUUACGGCCU	-0.604 ± 0.11	0.606 ± 0.14
GAUAAGCAAUAUUACGCUGG	-2.66 ± 0.14	-2.04 ± 0.2
CAUCAGCAAUAUUACGGCGA	-3.11 ± 0.28	-1.27 ± 0.15
CGCCAGCAAUAUUACGAGAA	-2.14 ± 0.42	-2.75 ± 0.38
CAGCAGCAAUAUUACGUCUC	-1.15 ± 0.064	-0.898 ± 0.075
